The target of experiment [1] is T1, SARS-CoV-2 RBD (residues Arg319-Phe541), His-tagged (SARS-CoV-2, UniProt P0DTC2). Put plainly: SPR. The settings on record: both partners purified.
Experiment [2] has as its target T1, SARS-CoV-2 RBD (residues …). Description: cryo-EM structure. The settings on record: both partners purified.

Experimental findings from PMC8441738 (MedComm, 2021) are described below.

B1: MA1 monoclonal antibody (antibody, V domains shown)
VH: QVQLKESGPGLVAPSQSLSITCTVSGFSLSDYSISWIRQPPGKGLEWLGVIWGGGSTYYNSALKSRLSISKDNSKSQVFLKMNSLQTDDTAMYYCAKHPLYYGSNSDGYYAMDYWGQGTSVTVSS
VL: DIVMTQSHKFMSTSVGDRVSITCKASQDVGIVVAWYQQKPGQSPKLLIYWASTRHTGVPDRFTGSGSGTDFTLTISNVQSEDLADYFCQQYSSYPLTFGGGTKLEIK
notes: also called group I mAb; source: hybridoma cell line or transfection of linear expression cassettes
As to B1, in experiment [1], the binding result is reported as “binds”.

B2: MA1scFv (scFv, V domains shown)
VH: QVQLKESGPGLVAPSQSLSITCTVSGFSLSDYSISWIRQPPGKGLEWLGVIWGGGSTYYNSALKSRLSISKDNSKSQVFLKMNSLQTDDTAMYYCAKHPLYYGSNSDGYYAMDYWGQGTSVTVSS
VL: DIVMTQSHKFMSTSVGDRVSITCKASQDVGIVVAWYQQKPGQSPKLLIYWASTRHTGVPDRFTGSGSGTDFTLTISNVQSEDLADYFCQQYSSYPLTFGGGTKLEIK
Take B2: in experiment [2], the binding result was “binds”.
